Data on one substance can be found in paper PMC5034038.

Assay [1] has as its target GFP-CaV2.2 K-R-HA (rabbit) (UniProt Q05152).
The target of assay [2] is GFP-CaV2.2-HA (rabbit) (UniProt Q05152).

On to “CaVβ1b-GFP (from UniProt P54283 1-597) (natural protein)”, for which, in assay [1], the Gmax (whole cell conductance) from Boltzmann fits, whole cell patch clamp of tsA-201 cells with CaVα2δ-1, 1 mM Ba2+ was determined as 4.5 nS/pF; the IBa current density at +5 mV, whole cell patch clamp of tsA-201 cells with CaVα2δ-1, 1 mM Ba2+ amounted to 148 pA/pF; the V50 of activation from Boltzmann fits of current density-voltage relationships, whole cell patch clamp of tsA-201 cells with CaVα2δ-1, 1 mM Ba2+ worked out at 1.3 mV. Moreover, in assay [2], the Gmax (whole cell conductance) from Boltzmann fits, whole cell patch clamp of tsA-201 cells with CaVα2δ-1, 1 mM Ba2+ was found to be 7.7 nS/pF; the IBa current density at +5 mV, whole cell patch clamp of tsA-201 cells with CaVα2δ-1, 1 mM Ba2+ is 277 pA/pF; the V50 of activation from Boltzmann fits of current density-voltage relationships, whole cell patch clamp of tsA-201 cells with CaVα2δ-1, 1 mM Ba2+ is -4.7 mV.
